Data as given in PMC3522573 (Oncogene, 2012).

Key:
Assay in all cases: two-hybrid
Gal4(DBD)-Neh6 = target: T1, Gal4(DBD)-Neh6 (mouse, UniProt Q60795 300-380)
T1 sequence (looked up): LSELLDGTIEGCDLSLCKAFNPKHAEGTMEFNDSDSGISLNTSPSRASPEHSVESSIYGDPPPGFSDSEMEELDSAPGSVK

Gal4(DBD)-Neh6^ΔDSAPGS = target: T2, Gal4(DBD)-Neh6^ΔDSAPGS (mouse, UniProt Q60795 300-380, Δ373-378 (called ΔDSAPGS))
T2 sequence (looked up): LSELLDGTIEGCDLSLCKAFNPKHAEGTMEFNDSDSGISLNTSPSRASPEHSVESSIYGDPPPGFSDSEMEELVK

Gal4(DBD)-Neh6^ΔSDSGIS = target: T3, Gal4(DBD)-Neh6^ΔSDSGIS (mouse, UniProt Q60795 300-380, Δ333-338 (called ΔSDSGIS))
T3 sequence (looked up): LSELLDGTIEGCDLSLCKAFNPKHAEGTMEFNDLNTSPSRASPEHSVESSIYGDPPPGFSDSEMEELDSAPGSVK

fold increase in Gal4-driven luciferase activity over either fusion alone (Gal4(DBD)-Neh6): ~3.2 fold
fold increase in Gal4-driven luciferase activity with GSK-3β^Δ9 co-expressed (Gal4(DBD)-Neh6): 4 fold
fold increase in Gal4-driven luciferase activity with GSK-3β^Δ9 co-expressed (Gal4(DBD)-Neh6^ΔDSAPGS): 3.1 fold
fold increase in Gal4-driven luciferase activity over either fusion alone (Gal4(DBD)-Neh6^ΔSDSGIS): 1.5 fold
B1: Gal4(AD)-WD40 (domain or fragment, mouse, UniProt Q3ULA2 303-581, looked up)
chain: SKGVYCLQYDDQKIVSGLRDNTIKIWDKSTLECKRILTGHTGSVLCLQYDERVIITGSSDSTVRVWDVNAGEMLNTLIHHCEAVLHLRFNNGMMVTCSKDRSIAVWDMASPTDITLRRVLVGHRAAVNVVDFDDKYIVSASGDRTIKVWNTSTCEFVRTLNGHKRGIACLQYRDRLVVSGSSDNTIRLWDIECGACLRVLEGHEELVRCIRFDNKRIVSGAYDGKIKVWDLMAALDPRAPAGTLCLRTLVEHSGRVFRLQFDEFQIVSSSHDDTILIWD
